Data as given in US7592006 (UNIVERSIT CATHOLIQUE DE LOUVAIN, dated 2009).
One block for each molecule: values may come before it.

Assays:
human CD2 [1] = target: T1, human CD2 (human, UniProt P06729 25-351); experiment: two color flow cytometry on human PBMC, biotinylated LO-CD2a and Leu-5bPE; Y axis (FL2) taken as Leu-5b-PE, inferred
T1 construct: whole, on cells; The plasmid is cited from Peterson and Seed, Nature 1987; also called CD2 antigen; wild-type CD2
T1 sequence (looked up): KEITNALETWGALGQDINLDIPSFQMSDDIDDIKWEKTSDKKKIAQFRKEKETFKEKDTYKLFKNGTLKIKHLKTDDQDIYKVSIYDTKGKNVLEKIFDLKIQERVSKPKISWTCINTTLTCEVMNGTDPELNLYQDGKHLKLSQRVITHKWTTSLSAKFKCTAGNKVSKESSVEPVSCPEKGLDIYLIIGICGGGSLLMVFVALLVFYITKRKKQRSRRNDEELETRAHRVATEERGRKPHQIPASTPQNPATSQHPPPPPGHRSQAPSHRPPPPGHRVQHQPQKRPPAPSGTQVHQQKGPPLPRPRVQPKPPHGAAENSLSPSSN

human CD2 [2] = target: T1, human CD2; experiment: two color flow cytometry on human PBMC, biotinylated LO-CD2a and Leu-5bPE; upper left quadrant taken as Leu-5b-PE positive, LO-CD2a below the quadrant limit (axes inferred: X = FL1 LO-CD2a, Y = FL2 Leu-5b-PE)
human CD2 [3] = target: T1, human CD2; experiment: flow cytometry on CD2-expressing Jurkat cells, 0 to 4 µg/ml antibody (FIG. 35)
Method: Transient expression in COS cells and detection of secreted antibody were carried out as described previously for the chimeric antibody. The humanized antibody was purified by affinity chromatography (Protein A). […] The Jurkat cell line, which expresses CD2, was stained with rat LO-CD2a, the humanized LO-CD2a (LO-CD2aHu), or rat IgG2b or human IgG controls. Antibody concentrations ranged from 0 to 4 ig/ml. […] Bound antibodies were detected with an isotype-specific FITC-conjugated antisera. The results shown in FIG. 35 are expressed as the percentage of cells positively stained by the antibodies over the range of concentrations mentioned hereinabove. Functional studies indicate that the humanized antibody is also capable of inhibiting a primary MLR. Nanogram quantities of LO-CD2a, LO-CD2aHu, rat IgG2b control, or human IgG1 control were added to culture wells containing equivalent numbers of human peripheral blood mononuclear cells (PBMC) from a designated responder and stimulator (irradiated cells). Control wells contained no antibody. The cultures were incubated for 5 days, then pulsed overnight with tritiated thymidine. (3HT). Proliferation is detected by the uptake of 3HT. The results, as given in Table 3 below, are expressed as the mean CPM as recorded by a Beta plate reader.

Y MEAN fluorescence (quadrant 1UL) (human CD2 [1]): 285 | Y MEAN fluorescence (quadrant 2UR) (human CD2 [1]): 631 | Y MEAN fluorescence (quadrant 4LR) (human CD2 [1]): 6.54 | % GATED (quadrant 1UL) (human CD2 [2]): 23.2%
Molecule: Leu-5b, mouse anti-human CD2 monoclonal antibody (Becton Dickinson)

binding result (human CD2 [3]): binds
B1: humanized LO-CD2a (antibody, V domains shown)
VH: QVQLVQSGAEVKKPGASVKVSCKASGYTFTEYYMYWVRQAPGQGLELMGRIDPEDGSIDYVEKFKKKVTLTADTSSSTAYMELSSLTSDDTAVYYCARGKFNYRFAYWGQGTLVTVSS
VL: DVVMTQSPPSLLVTLGQPASISCRSSQSLLHSSGNTYLNWLLQRPGQSPQPLIYLVSKLESGVPDRFSGSGSGTDFTLKISGVEAEDVGVYYCMQFTHYPYTFGQGTKLEIK
notes: Variable regions were cloned into the MRC light (human kappa) and heavy (human gamma 1) chain vectors; Expressed in COS cells and purified on Protein A; also called LO-CD2aHu; humanized antibody
